This passage reports abundance fitness results from the Human Domainome abundance scans (Beltran et al. 2025).

± gives the uncertainty stated by the source.

This data set can be described thus: abundance fitness (aPCA) (normalised: wild type 0, dead -1); higher = more abundant; growth selection in yeast, the domain comes from the species named. The following applies: Saccharomyces cerevisiae (strain ATCC 204508 / S288c).
Turning to “E3 ubiquitin-protein ligase RSP5 T326A, P39940”, the abundance fitness is -0.023 ± 0.05.
With “E3 ubiquitin-protein ligase RSP5 T326C, P39940”, the abundance fitness is -0.033 ± 0.07.
Next, “E3 ubiquitin-protein ligase RSP5 T326D, P39940”: 0.094 ± 0.068; “E3 ubiquitin-protein ligase RSP5 T326E, P39940”: 0.055 ± 0.052.
Then “E3 ubiquitin-protein ligase RSP5 T326F, P39940”, with -0.02 ± 0.09; and “E3 ubiquitin-protein ligase RSP5 T326G, P39940”, with -0.18 ± 0.048.
Then “E3 ubiquitin-protein ligase RSP5 T326H, P39940”, with -0.051 ± 0.078; and “E3 ubiquitin-protein ligase RSP5 T326I, P39940”, with -0.266 ± 0.2; and “E3 ubiquitin-protein ligase RSP5 T326K, P39940”, with 0.068 ± 0.051.
Substance “E3 ubiquitin-protein ligase RSP5 T326L, P39940” displayed an abundance fitness of -0.023 ± 0.048.
Then “E3 ubiquitin-protein ligase RSP5 T326M, P39940”, with 0.008 ± 0.07; and “E3 ubiquitin-protein ligase RSP5 T326N, P39940”, with 0.105 ± 0.087.
For the substance “E3 ubiquitin-protein ligase RSP5 T326P, P39940”, the abundance fitness is -0.652 ± 0.079.
Next, “E3 ubiquitin-protein ligase RSP5 T326Q, P39940”: -0.071 ± 0.057; “E3 ubiquitin-protein ligase RSP5 T326R, P39940”: -0.068 ± 0.042.
Next, “E3 ubiquitin-protein ligase RSP5 T326S, P39940”: 0.014 ± 0.054; “E3 ubiquitin-protein ligase RSP5 T326V, P39940”: -0.008 ± 0.051; “E3 ubiquitin-protein ligase RSP5 T326W, P39940”: -0.207 ± 0.08.
“E3 ubiquitin-protein ligase RSP5 T326Y, P39940” returned an abundance fitness of -0.061 ± 0.072.
Next, “E3 ubiquitin-protein ligase RSP5 T327A, P39940”: -0.049 ± 0.046.
Substance “E3 ubiquitin-protein ligase RSP5 T327C, P39940” displayed an abundance fitness of -0.001 ± 0.06.
On to “E3 ubiquitin-protein ligase RSP5 T327D, P39940”, for which the abundance fitness worked out at 0.121 ± 0.07.
“E3 ubiquitin-protein ligase RSP5 T327E, P39940” showed an abundance fitness of 0.105 ± 0.056.
Then “E3 ubiquitin-protein ligase RSP5 T327G, P39940”, with -0.037 ± 0.046; and “E3 ubiquitin-protein ligase RSP5 T327H, P39940”, with 0.019 ± 0.16.
“E3 ubiquitin-protein ligase RSP5 T327L, P39940” showed an abundance fitness of -0.049 ± 0.055.
With “E3 ubiquitin-protein ligase RSP5 T327M, P39940”, the abundance fitness was determined as 0.103 ± 0.077.
Next, “E3 ubiquitin-protein ligase RSP5 T327N, P39940”: 0.12 ± 0.12.
Then “E3 ubiquitin-protein ligase RSP5 T327P, P39940”, with -0.258 ± 0.068.
Next, “E3 ubiquitin-protein ligase RSP5 T327Q, P39940”: -0.112 ± 0.057; “E3 ubiquitin-protein ligase RSP5 T327R, P39940”: -0.067 ± 0.044.
The substance “E3 ubiquitin-protein ligase RSP5 T327S, P39940” displayed an abundance fitness of 0.038 ± 0.05.
Next, “E3 ubiquitin-protein ligase RSP5 T327W, P39940”: -0.17 ± 0.053.
Then “E3 ubiquitin-protein ligase RSP5 T327Y, P39940”, with -0.639 ± 0.27; and “E3 ubiquitin-protein ligase RSP5 T342D, P39940”, with 0.173 ± 0.076.
As for “E3 ubiquitin-protein ligase RSP5 T342E, P39940”, the abundance fitness was -0.377 ± 0.05.
Substance “E3 ubiquitin-protein ligase RSP5 T342G, P39940” gave an abundance fitness of -0.255 ± 0.045.
Next, “E3 ubiquitin-protein ligase RSP5 T342H, P39940”: -0.455 ± 0.3; “E3 ubiquitin-protein ligase RSP5 T342K, P39940”: -0.824 ± 0.058.
Regarding “E3 ubiquitin-protein ligase RSP5 T342L, P39940”, the abundance fitness was -0.074 ± 0.065.
The substance “E3 ubiquitin-protein ligase RSP5 T342M, P39940” registered an abundance fitness of -0.327 ± 0.17.
Then “E3 ubiquitin-protein ligase RSP5 T342N, P39940”, with -0.225 ± 0.13.
Then “E3 ubiquitin-protein ligase RSP5 T342P, P39940”, with -0.556 ± 0.074.
On to “E3 ubiquitin-protein ligase RSP5 T342Q, P39940”, for which the abundance fitness is -0.226 ± 0.067.
Next, “E3 ubiquitin-protein ligase RSP5 T342R, P39940”: -0.738 ± 0.044; “E3 ubiquitin-protein ligase RSP5 T342V, P39940”: -0.315 ± 0.047.
“E3 ubiquitin-protein ligase RSP5 T342W, P39940” showed an abundance fitness of -0.865 ± 0.054.
Regarding “E3 ubiquitin-protein ligase RSP5 T354A, P39940”, the abundance fitness is -0.152 ± 0.052.
“E3 ubiquitin-protein ligase RSP5 T354C, P39940” gave an abundance fitness of -0.196 ± 0.088.
Then “E3 ubiquitin-protein ligase RSP5 T354E, P39940”, with -0.163 ± 0.054; and “E3 ubiquitin-protein ligase RSP5 T354F, P39940”, with -0.374 ± 0.093.
Then “E3 ubiquitin-protein ligase RSP5 T354G, P39940”, with -0.223 ± 0.043; and “E3 ubiquitin-protein ligase RSP5 T354H, P39940”, with 0.187 ± 0.14.
The substance “E3 ubiquitin-protein ligase RSP5 T354K, P39940” gave an abundance fitness of -0.147 ± 0.082.
The substance “E3 ubiquitin-protein ligase RSP5 T354L, P39940” returned an abundance fitness of -0.266 ± 0.049.
Then “E3 ubiquitin-protein ligase RSP5 T354P, P39940”, with -1.07 ± 0.078.
Next, “E3 ubiquitin-protein ligase RSP5 T354Q, P39940”: -0.165 ± 0.056.
For “E3 ubiquitin-protein ligase RSP5 T354R, P39940”, the abundance fitness is -0.219 ± 0.044.
Then “E3 ubiquitin-protein ligase RSP5 T354S, P39940”, with -0.049 ± 0.049; and “E3 ubiquitin-protein ligase RSP5 T354V, P39940”, with -0.445 ± 0.043; and “E3 ubiquitin-protein ligase RSP5 T354W, P39940”, with -0.658 ± 0.065.
Next, “E3 ubiquitin-protein ligase RSP5 T356A, P39940”: -0.237 ± 0.048; “E3 ubiquitin-protein ligase RSP5 T356C, P39940”: 0.032 ± 0.064.
Then “E3 ubiquitin-protein ligase RSP5 T356D, P39940”, with -0.405 ± 0.08.
“E3 ubiquitin-protein ligase RSP5 T356E, P39940” yielded an abundance fitness of -0.3 ± 0.054.
Next, “E3 ubiquitin-protein ligase RSP5 T356G, P39940”: -0.465 ± 0.044; “E3 ubiquitin-protein ligase RSP5 T356H, P39940”: -0.483 ± 0.23; “E3 ubiquitin-protein ligase RSP5 T356I, P39940”: 0.404 ± 0.26.
With “E3 ubiquitin-protein ligase RSP5 T356K, P39940”, the abundance fitness is -0.225 ± 0.066.
Next, “E3 ubiquitin-protein ligase RSP5 T356L, P39940”: -0.143 ± 0.047; “E3 ubiquitin-protein ligase RSP5 T356M, P39940”: -0.005 ± 0.066; “E3 ubiquitin-protein ligase RSP5 T356N, P39940”: -0.285 ± 0.18.
Then “E3 ubiquitin-protein ligase RSP5 T356P, P39940”, with -0.96 ± 0.069; and “E3 ubiquitin-protein ligase RSP5 T356Q, P39940”, with -0.121 ± 0.05; and “E3 ubiquitin-protein ligase RSP5 T356R, P39940”, with -0.32 ± 0.042.
Then “E3 ubiquitin-protein ligase RSP5 T356S, P39940”, with 0.034 ± 0.05; and “E3 ubiquitin-protein ligase RSP5 T356V, P39940”, with -0.124 ± 0.052; and “E3 ubiquitin-protein ligase RSP5 T356Y, P39940”, with -0.381 ± 0.12.
On to “E3 ubiquitin-protein ligase RSP5 T357A, P39940”, for which the abundance fitness was -0.304 ± 0.048.
Then “E3 ubiquitin-protein ligase RSP5 T357C, P39940”, with -0.142 ± 0.065.
Substance “E3 ubiquitin-protein ligase RSP5 T357D, P39940” gave an abundance fitness of -0.711 ± 0.06.
For the substance “E3 ubiquitin-protein ligase RSP5 T357E, P39940”, the abundance fitness is -0.477 ± 0.058.
For the substance “E3 ubiquitin-protein ligase RSP5 T357F, P39940”, the abundance fitness was -1.11 ± 0.28.
For “E3 ubiquitin-protein ligase RSP5 T357G, P39940”, the abundance fitness was -0.81 ± 0.047.
Then “E3 ubiquitin-protein ligase RSP5 T357H, P39940”, with -0.578 ± 0.16; and “E3 ubiquitin-protein ligase RSP5 T357I, P39940”, with -0.735 ± 0.17.
Next, “E3 ubiquitin-protein ligase RSP5 T357K, P39940”: -0.393 ± 0.069; “E3 ubiquitin-protein ligase RSP5 T357L, P39940”: -0.488 ± 0.08.
Next, “E3 ubiquitin-protein ligase RSP5 T357M, P39940”: -0.33 ± 0.094.
Take “E3 ubiquitin-protein ligase RSP5 T357P, P39940”: the abundance fitness was -0.77 ± 0.073.
Consider “E3 ubiquitin-protein ligase RSP5 T357Q, P39940”, for which the abundance fitness is -0.441 ± 0.07.
